The values that follow come from patent US20220242943A1.

For assay [1], the target named is human PDGF-BB (human) (UniProt P01127). The assay can be described thus: blocking ELISA: 60 pM Biot-PDGF-BB on 1 ug/ml hPDGFRb-mmH; IC50 cell NB (Non-Blocker). For orientation: An ELISA detects its analyte on a solid surface through an enzyme-linked reagent.
Assay [2] addresses human PDGF-AB (human) (UniProt P04085). As to the kind of experiment: blocking ELISA: 100 pM Biot-PDGF-AB on 1 ug/ml hPDGFRb-mmH; IC50 cell NB (Non-Blocker).
Assay [3] has the same target. The assay can be described thus: cell-based or functional assay.
Assay [4] has as its target human PDGF-BB (human) (UniProt P01127). The assay can be described thus: cell-based or functional assay.
Assay [5] shares this target. The assay can be described thus: SPR 25C, mAb captured on anti-hFc; analyte Human PDGF-BB homodimer (R&D).
Assay [6] deals with Cynomolgus monkey PDGF-BB (cynomolgus monkey (Macaca fascicularis)). As to the kind of experiment: SPR 25C, mAb captured on anti-hFc; analyte Monkey PDGF-BB homodimer (Kingfisher).
Assay [7] concerns the target human PDGFRβ on HEK293/SRE-luc/hPDGFRβ cells (human) (UniProt P09619). As to the kind of experiment: cell-based or functional assay.

Chain of human PDGFRβ on HEK293/SRE-luc/hPDGFRβ cells (human) (P09619 33-1106): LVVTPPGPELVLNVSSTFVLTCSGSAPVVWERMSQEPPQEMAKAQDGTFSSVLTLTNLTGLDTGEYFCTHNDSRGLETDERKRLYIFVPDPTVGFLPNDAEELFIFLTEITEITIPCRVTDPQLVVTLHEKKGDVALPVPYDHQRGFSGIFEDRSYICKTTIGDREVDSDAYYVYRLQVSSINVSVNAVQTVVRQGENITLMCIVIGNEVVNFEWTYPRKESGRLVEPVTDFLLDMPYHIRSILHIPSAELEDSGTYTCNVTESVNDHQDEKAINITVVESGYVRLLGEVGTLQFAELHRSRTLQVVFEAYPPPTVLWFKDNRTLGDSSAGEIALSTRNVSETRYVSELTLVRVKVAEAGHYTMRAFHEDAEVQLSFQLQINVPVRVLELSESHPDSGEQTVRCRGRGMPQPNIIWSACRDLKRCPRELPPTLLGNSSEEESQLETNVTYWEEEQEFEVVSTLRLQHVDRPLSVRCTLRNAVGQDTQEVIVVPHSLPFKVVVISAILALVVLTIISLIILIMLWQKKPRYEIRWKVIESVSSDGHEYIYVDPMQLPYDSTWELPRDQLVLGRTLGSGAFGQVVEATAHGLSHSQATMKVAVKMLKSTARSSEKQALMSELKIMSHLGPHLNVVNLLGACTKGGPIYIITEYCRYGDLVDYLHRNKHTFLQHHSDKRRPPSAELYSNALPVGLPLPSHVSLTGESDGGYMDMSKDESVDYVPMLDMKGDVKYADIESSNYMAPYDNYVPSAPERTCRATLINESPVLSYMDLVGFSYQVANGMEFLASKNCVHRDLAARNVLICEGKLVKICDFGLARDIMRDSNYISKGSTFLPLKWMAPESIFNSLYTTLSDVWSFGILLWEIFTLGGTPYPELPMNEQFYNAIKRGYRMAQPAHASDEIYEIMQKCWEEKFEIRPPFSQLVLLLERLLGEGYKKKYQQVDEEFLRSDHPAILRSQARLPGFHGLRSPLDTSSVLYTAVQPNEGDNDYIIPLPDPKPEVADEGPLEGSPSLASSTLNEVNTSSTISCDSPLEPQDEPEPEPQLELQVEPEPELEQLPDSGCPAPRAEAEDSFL
Chain of Cynomolgus monkey PDGF-BB (cynomolgus monkey (Macaca fascicularis)) (chain, as listed by the source): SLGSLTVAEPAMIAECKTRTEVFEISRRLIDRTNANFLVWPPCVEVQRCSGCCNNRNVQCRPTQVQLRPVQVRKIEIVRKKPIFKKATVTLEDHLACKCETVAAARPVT

In the case of isotype - mIgG (REGN 751) (antibody), the % blocking at 100 nM Ab is -5% with human PDGF-BB (human) [1] and 18% with human PDGF-AB (human) [2].
In the assay with human PDGF-AB (human) [3], REGN1945 (antibody) had an A647 Intensity, internalization in NHLF, pre-blocking Ab: NA of 624000; an A647 Intensity, internalization in PASMC, pre-blocking Ab: NA of 464000; a Fold Change vs REGN1945, internalization in NHLF, pre-blocking Ab: NA of 1 fold; a Fold Change vs REGN1945, internalization in PASMC, pre-blocking Ab: NA of 1 fold. In the assay with human PDGF-BB (human) [4], the A647 Intensity, internalization in NHLF, pre-blocking Ab: NA is 573000; the A647 Intensity, internalization in PASMC, pre-blocking Ab: NA is 483000; the EC50 of subsequent PDGF-BB calcium flux in PASMC after 3 hr pre-treatment with antibody-PDGFBB (10:1 nM) turned out to be 0.6 nM; the Fold Change vs REGN1945, internalization in NHLF, pre-blocking Ab: NA amounted to 1 fold. For the same substance, in the assay with human PDGF-BB (human) [4], the Fold Change vs REGN1945, internalization in PASMC, pre-blocking Ab: NA came to 1 fold; the Max-Min at 5 nM PDGF-BB (RFU), PASMC after 3 hr pre-treatment with antibody-PDGFBB was 3950 RFU; the Max-Min at 5 nM PDGF-BB (RFU), PASMC after 24 hr pre-treatment with antibody-PDGFBB worked out at 1460 RFU; the Max-Min at 5 nM PDGF-BB (RFU), PASMC after 48 h pre-treatment with antibody-PDGFBB amounted to 492 RFU. Moreover, the 30nM hPDGF-BB (R&D) Bound (RU) with human PDGF-BB (human) [5] amounted to 6.7 RU. This substance registered a 30nM mfPDGF-BB (KingFisher) Bound (RU) in assay [6] of 6.8 RU. In addition, in the assay with human PDGF-BB (human) [1], the % blocking at 100 nM Ab is -6%. For the same substance, in the assay with human PDGF-AB (human) [2], the % blocking at 100 nM Ab amounted to 21%.
Take “human PDGF-AB (from UniProt P04085 87-211) (ligand)”: in assay [7], the EC50 of ligand, SRE-luciferase in HEK293/SRE-luc/hPDGFRβ cells is 8.6 nM.
